# Measured values as given in the supplement of paper PMC12636428.
# Test system: Saccharomyces cerevisiae
# Experiment: transcriptional activation domain activity (GFP:mCherry ratio, weighted mean of sorted bins, harmonized to initial dataset scale) (arbitrary fluorescence ratio units); higher = stronger transcriptional activation
# Settings: beta-estradiol 1 µM; induction time 4 h
# Outline: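 For this assay, yeast diploids with a GFP reporter carried barcoded protein tiles at URA3, each fused to an estradiol-inducible synthetic transcription factor. Induction was a 1:5 dilution into SC with 1 uM beta-estradiol for 4 hours at 30 °C, followed by sorting into 8 bins by GFP:mCherry ratio and barcode sequencing. Tiles under 50 reads were dropped, and activation activity was calculated as the read-weighted mean of bin median fluorescence, averaged across barcodes and linearly mapped onto the initial dataset scale.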
row,Sequence,transcriptional activation domain activity
1,EYVSLCRTFATREMLKVAIFANIFSKMTRTLACLFVTRISSHVNRLRALLQPI,61700
2,ILNITPYAAGQFGYYYGTCWFNDPRPDVQFRWLLGSQSVWILLMSTGEVVFFF,< 6570
3,ITHCPSTRVAYTYIVGLSTNAVMIGFVLCPHCFLAFQNPSQTLWFLSLFLLCL,47700
4,PSIRRCPVSFGDIDMEAELACIQYIREVLLPELVPCAYILLSYILHLLHEVSL,77000
5,MGVLLVDFLTHWILFLFCSWFMLFSFGRFFGFSGSLLVRFLPDSDLLMFLVLL,70600
6,LRGGYTCQLNGTPKNPDLQVWLQLNLIAYFSFLDTRACDGKTASITGSAEMPF,51900
7,KASKSKKRKHHHHKSAVSSPEASDADTASQSSKRSKKSKRRHADADARAAANG,36700
8,GAYYLVSGLNGFELYEFDDNYHCGCCRDVHYRLFWFLIETISVLHGRWVFLQV,28800
9,MRLEVFCPLANATSHAYLIFCIMHCLYFIRHFFCCRSLSTFYSSRLLLLFHFI,80900
10,MTVDHDFNSEDILFPIESMSSIQYVENNNPNNINNDVIPYSLDIKNTVLDSAD,76400
11,RNVIRGCRKPLSSRYVFLMSVTRLVIPLYFYVCPYNIIALKPSKWIWLLVLYV,62600
12,MYNTALITIYLLLLLRRIFFTWSYLAYSFNFIATRVFARITMLMLVELFRQHD,67400
13,FQPAVATPTVSIGLIYLIIMAFFSFSFFLPIHMKYIQPQGHPPLHFWQLIIWR,68900
14,MACCNQTWLYIPTNYYFAFLMFGISIVHVLFIQNQGFSRVIFFLFFAWDLFVS,84600
15,DGKTFDQLLRLKRLLVMHKGNLQSMWCVALMLELWHTKWTELSRLIQQHWGTG,74200
16,EVAANHRTILDHTMSLVSAVHIACLRFMTVAWAQAYRRYIVAWIRDLQVLHPH,70400
17,MPFNLPPRAIGVATRVLEELGLFNIYKSCIDTKILCIQRFVRLFAYGGSTLVL,44200
18,VYMLTMESKKLLLRHVIDKLPGFLPTDLSGVTFLADWIHMQTGRIKKGTFNIV,59700
19,CPQPLIYCKPCKILQTQYDRLHINHMTFNMISHHLYRGLLPLLVVVCLLGKIV,62100
20,VNSHGYKHISNLDELDDLLSLTYSDNNLLSASNNSDFNNSNNGIINTADTQNS,106000
21,ATEKEVKPKKAAAPKKAAAPKEKKEKVEKAEKAPKPKANAAKKVKKTASAPAV,20200

row,Sequence,transcriptional activation domain activity
1,TGAKAPEGGKQLIVVVSSDKGLCGGIHSAVTKKTRQEYAAAPAEDKPQLIVVG,63400
2,ESDILPRLLHAIRAELKEDISLKFAWRLYKLYLLCVYHLWKNVVLMIWYRRWI,81700
3,MGLKGLLRSTIYVSSLVWLGWVVNLGQFLLFPFYSVTLKLSYNVNACIISVLV,68500
4,SQKKHCELCKTAFRFTKLYSPDMPKHLPFHIFVHHMTRYLLRNFLVWLRAALV,43000
5,KFHYRCGVAAKDTTESLRWVVADHYTWFTCTHCAAHKAHWYFDGSLGLVRLWF,69200
6,MLPRLFFVAFATIPSPSSPLPPLPFLSSLAFFFSFFPHLISFLFVFFSFHTFF,51400
7,TLLIASLLVVLCLLRRFLLSILCNRDFYMIKFYTFFLYQILLCSLLKCLRLLW,80500
8,SSAASAGGEGEGKDGKRKKDGQEEEEEEDKGSKKVKKNDGGAKQTKEGAKTSD,< 6570
9,FFFFLLFFPLPFFPSSFPFFFLIHLLISSSLVFPFSSSSSSLTQVFWCLCFFF,57400
10,ASGSGSGSKSGGGGARQGGGGAAGAAGGKGGGAAGGSKGGGGAWGKMKAAASD,18700
11,KRRGDQGKEQDRKGGEGGEEERGNGARGGGSARKEGDKGGEQKEGGRQRERAG,41700
12,IFTELYFIMSSIWFSKVYYMFGFLFVCFLLMTLTCAAVTILLVYFLLCAENYH,62000
13,MFCLRSWLPLLFIPTNASPIFIFLFFICTYFLNRPCVYCSFLLLILFASSCHW,48400
14,DADMIVRLALKARLRWLLPKLTWLRIYFDGLYSNGDVLRVLILPKLLHLLIMC,66000
15,SRLFDLQLNICLSFQVYWFRNLVDGFPLDIPPLHIASFFGLVEPLTALLKSLG,33100
16,GFLLSYSLIRLSLTSHLLFGVFLLIQDIMLVLFSLYPTYPILLFSFLIFIGSF,35500
17,MTLASLAARRSNCMKRRVGCVVVSQPDRRVISTGYNGTPRGIRNCGEGGCPRC,39100
18,ERSILWRAYLRLISHINSIYKIRIAYEWTEDFVIKYLWSAAGYCLISVPVLLT,54200
19,MLRVIVLLIVIDHLLYLPWLYFATYNARLLSCQSSTGRIYIERNCHSHSYGDK,50700
20,EVMKIMPVQKQTRAGQRTRFKAFVVIGDSDGHVGLGVKCAKEVATAIRGAIIL,55300
21,NGEDAAPAAEPAGTSTADAVGGTTALPAAYRLKAFISHKGPSVHSGHYVVHIR,52700

row,Sequence,transcriptional activation domain activity
1,NNSINATPIVDNSSGSQLPNGFDRGQANNTPFPGYFGGLDLFDYDFLFGNDFA,133000
2,MVLCNSKSLFFPLFLHYLYCVIFLLLWILFHIAFIFFTNFYYYLPSHTLCAFI,61700
3,GYRIVKMLGTVYGITVRSRNWAAGLGMVLKSVVGGELRWFTNLLYTARNDAIG,48300
4,DQTICAEVMRCCESNVVAFRRLVHMIQIQLRNIGIMADIRLVRNLVLVLHGAL,62000
5,GHDGPQQQQQRKKPAAAAAAGKGKEKGKGKGKGQVVVVASKPAKKAASAAAAA,28700
6,AAAAALRTEETADSAGQLAEAGCRSVDTADTAEGCLEEMAVVVVAVASSVGAM,55600
7,APPPAAAPSQPASQPAPAEKHEEPAPQPSPEPQPEPQAQIEESKQEPAPEPQA,20300
8,EPKKAKIGAPKRKKKEVIEDAEAGAGAETEEGEAPPKKKRGGRKAKPAKEEPV,15600
9,GDFNDKTLKENCRVDSQQDCYDLAQLQILESDFWKTIAFSKPFYAVDENSSIF,102000
10,AASQNVDAQPKPKPAQDNDLESESGTSSSSSSSSESGSESDSGSDDGSASGSG,< 6570
11,IKPEEPVVAAAEEPATAPVVEETKPEEVAAEVAAEEDAAPVEEATPAEEVKPE,12400
12,ALLAISLTSFLCSSVFLEIETWCKKYRSHLLLVLMIPMVEPLISLFISFMWLL,62500
13,VATADVCMVTHFLILLLLAAITGAVLVSVFAFLCVICPPHLRRRPVFMLNLLA,35400
14,QFRYLKRLLLVHGHWSYARNGNMINNFFYKNIICIGVLWWFMIYCGWSSAYVF,71200
15,MFYGFGSLSYGKGVTEFFFFSFFFFVASFISCFLFNFFSSAQFCCLFFHFVLI,58300
16,TAVLMQLINLTVFICLASFGSLVFATWLPLIFQYYAIHLRDLLLHDASLIVNW,39100
17,KIVKHVILAATWRTSSVQDSFYLLATWWIICWQFYFVSVYIFPLILIALLHYM,60700
18,TSSPSGQNASSTSVALVVGSDEKLVKAVGEGLKSKLGIKGGGKGPRWTGKWTG,33700
19,KPKAAAKAAKPAKKAAPEKAEKPEKPEKAKEVEKPEKPEKVSKPAAKKAAPVA,25000
